Source: the RNAGym collection of RNA variant scans (doi:10.7554/elife.80360)

B1: CPEB3 Ribozyme (parent)
chain: GGGGGCCACAGCAGAAGCGUUCACGUCGCGGCCCCUGUCAGAUUCUGGUGAAUCUGCGAAUUCUGCUGU

Variants of: B1
Assay: self-cleavage, relative activity (ratio to wild type); higher = more cleavage; co-transcriptional

In order of rising self-cleavage:
1. G25C C66G  0.0932
2. G25U G37C  0.0933
3. G25C G41C  0.0934
4. G25C G47A  0.102
5. G25U U64C  0.103
6. G25U G58C  0.107
7. G25C U55A  0.107
8. G25C U55C  0.107
9. G25C U49G  0.11
10. G25A U44G  0.11
11. G25U A40G  0.114
12. G25A U43G  0.119
13. G25A G37C  0.119
14. U26A C27G  0.121
15. G25A U38C  0.123
16. G25C G41A  0.123
17. G25C C29U  0.126
18. G25U C63A  0.129
19. G25C U67A  0.129
20. G25A G28C  0.131
21. G25C U62A  0.132
22. G25U U64A  0.132
23. G25C C66A  0.134
24. G25C C63U  0.136
25. G25A U44A  0.138
26. G25A U64C  0.14
27. G25C U49A  0.14
28. G25C G28A  0.14
29. G25U G30C  0.14
30. G25C C35A  0.141
31. G25C G47C  0.142
32. G25C G56A  0.143
33. G25U U67A  0.145
34. G25A G31C  0.147
35. G25C C29G  0.148
36. G25A U38A  0.149
37. G25C C66U  0.15
38. G25A C35U  0.152
39. G25C U62G  0.153
40. G25A U38G  0.153
41. G25A U43A  0.154
42. G25A G30A  0.155
43. G25U C35A  0.155
44. G25C G37C  0.156
45. G25A A59C  0.157
46. G25C U62C  0.158
47. G25C A40G  0.158
48. G25U C32G  0.158
49. G25C A52U  0.158
50. G25U G68U  0.159
51. G25C G28U  0.16
52. G25U C27G  0.16
53. G25U G30A  0.16
54. G25A C27A  0.162
55. G25U A42U  0.163
56. G25U G31A  0.163
57. G25C C39G  0.164
58. G25U C35G  0.165
59. G25C A59G  0.169
60. G25A C27U  0.169
61. G25A A59U  0.17
62. G25C  0.17
63. G25U A42C  0.17
64. G25C G37A  0.171
65. G25A G41C  0.172
66. G25C C27U  0.172
67. G25U  0.172
68. G25C A40C  0.173
69. G25U C63U  0.173
70. G25C U55G  0.174
71. G25C A52G  0.174
72. G25A G47A  0.175
73. G25C A59U  0.176
74. G25C A40U  0.176
75. G25C C35U  0.177
76. G25C G68C  0.18
77. G25A C35G  0.18
78. G25U G31U  0.182
79. G25C A52C  0.182
80. G25U A40C  0.183
81. G25C G50A  0.186
82. G25A U62A  0.187
83. G25A G37A  0.187
84. G25C U44A  0.188
85. G25A U64A  0.19
86. G25A U62C  0.19
87. G25U G31C  0.191
88. G25C C39U  0.192
89. G25C A59C  0.193
90. G25A G68C  0.195
91. G25A G41U  0.197
92. G25C C39A  0.197
93. G25A G31U  0.197
94. G25U A59U  0.199
95. G25A G37U  0.199
96. G25A G56U  0.2
97. G25A  0.202
98. G25C A51G  0.203
99. G25A C54A  0.203
100. G25A C33G  0.206
101. G25A C33A  0.206
102. G25U A40U  0.208
103. G25A G48A  0.208
104. G25A A59G  0.208
105. G25A C45A  0.208
106. G25A C27G  0.208
107. G25A C54G  0.208
108. G25C G68U  0.21
109. G25U U67C  0.212
110. G25C G47U  0.213
111. G25U G58A  0.214
112. G25C G50U  0.216
113. G25C U36G  0.217
114. G25U A59C  0.217
115. G25A G30C  0.219
116. G25A G31A  0.219
117. G25A G68A  0.222
118. G25A G68U  0.224
119. G25C C27G  0.225
120. G25U G68C  0.225
121. G25C A51C  0.227
122. G25A G48U  0.236
123. G25U U67G  0.237
124. G25C U67G  0.24
125. G25C G68A  0.255
126. G25C C33U  0.258
127. G25A C33U  0.276
128. G25A U43C  0.288
129. G25A U69A  0.295
130. U26A C29G  0.307
131. G25C C33A  0.307
132. G25C U69C  0.333
133. C24U G65U  0.352
134. C24U U61C  0.353
135. G25A U69C  0.36
136. U26A A60U  0.377
137. C24U G65A  0.39
138. C24U U61G  0.397
139. U26A A59U  0.404
140. C24U U43G  0.418
141. U26A C27U  0.429
142. C24U U61A  0.431
143. C24U U62A  0.441
144. U26A A60G  0.478
145. U26A C34G  0.501
146. C24U U62C  0.505
147. C24U U43A  0.679
148. C24U U43C  0.691
149. C24U U46C  0.714
150. C24U G58C  0.742
151. C24U U67G  0.761
152. C24U G50C  0.795
153. U26A A51U  0.813
154. C24U G48A  0.815
155. C24U U67C  0.833
156. C24U G50A  0.838
157. C24U U46A  0.852
158. C24U G48C  0.86
159. C24U G58U  0.879
160. C24U G48U  0.889
161. C24U U69A  0.895
162. U26A  0.907
163. C24U U69G  0.909
164. C24U G47U  0.909
165. U26A A59G  0.923
166. C24U G68C  0.928
167. C24U G68U  0.96
